Assay results as given in patent publication US20150344570A1 (published 2015).

T1: FcγRIIb extracellular domain with C-terminal His tag (human, UniProt P31994 43-217)
T1 construct: extracellular domain; also called FcgRIIb; 2b; not shown: His tag at the C terminus
T1 sequence (looked up): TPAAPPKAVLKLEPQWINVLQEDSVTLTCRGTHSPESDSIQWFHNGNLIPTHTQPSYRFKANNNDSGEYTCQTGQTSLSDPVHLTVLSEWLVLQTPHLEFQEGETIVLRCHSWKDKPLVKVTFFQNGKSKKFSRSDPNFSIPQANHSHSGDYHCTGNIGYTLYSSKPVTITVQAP

B1: GpH7-A5/GpH7-B3 variant A327_16H/GpL16-k0 (antibody, human IgG1, kappa)
heavy 1: not shown
heavy 2: not shown
light: DIVMTQSPLSLPVTPGEPASISCQASESLVHSNRNTYLHWYLQKPGQSPQLLIYKVSNRFSGVPDRFSGSGSGTDFTLKISRVEAEDVGVYYCSQNTHVPPTFGQGTKVEIERTVAAPSVFIFPPSDEQLKSGTASVVCLLNNFYPREAKVQWKVDNALQSGNSQESVTEQDSKDSTYSLSSTLTLSKADYEKHKVYACEVTHQGLSSPVTKSFNRGEC
notes: Heterodimerized IgG1 antibody; alteration in the GpH7-B3 chain only; also called He Ab
B2: GpH7-A5/GpH7-B3 variant K326_07I/GpL16-k0 (antibody, human IgG1, kappa)
heavy 1: not shown
heavy 2: not shown
light: B1 light
notes: as for B1
B3: GpH7-A5/GpH7-B3 variant L328_03V/GpL16-k0 (antibody, human IgG1, kappa)
heavy 1: not shown
heavy 2: not shown
light: B1 light
notes: as for B1
B4: GpH7-A5/GpH7-B3 variant P271_14T/GpL16-k0 (antibody, human IgG1, kappa)
heavy 1: not shown
heavy 2: not shown
light: B1 light
notes: as for B1
B5: GpH7-A5/GpH7-B3 variant N325_07I/GpL16-k0 (antibody, human IgG1, kappa)
heavy 1: not shown
heavy 2: not shown
light: B1 light
notes: as for B1
B6: GpH7-A5/GpH7-B3 variant K326_06M/GpL16-k0 (antibody, human IgG1, kappa)
heavy 1: not shown
heavy 2: not shown
light: B1 light
notes: as for B1
B7: GpH7-A5/GpH7-B3 variant N325_03V/GpL16-k0 (antibody, human IgG1, kappa)
heavy 1: not shown
heavy 2: not shown
light: B1 light
notes: as for B1
B8: GpH7-A5/GpH7-B3 variant L328_01G/GpL16-k0 (antibody, human IgG1, kappa)
heavy 1: not shown
heavy 2: not shown
light: B1 light
notes: as for B1
B9: GpH7-A5/GpH7-B3 variant N325_06M/GpL16-k0 (antibody, human IgG1, kappa)
heavy 1: not shown
heavy 2: not shown
light: B1 light
notes: as for B1
B10: GpH7-A5/GpH7-B3 variant K326_03V/GpL16-k0 (antibody, human IgG1, kappa)
heavy 1: not shown
heavy 2: not shown
light: B1 light
notes: as for B1
B11: GpH7-A5/GpH7-B3 variant N325_08L/GpL16-k0 (antibody, human IgG1, kappa)
heavy 1: not shown
heavy 2: not shown
light: B1 light
notes: as for B1
B12: GpH7-A5/GpH7-B3 variant S298_08L/GpL16-k0 (antibody, human IgG1, kappa)
heavy 1: not shown
heavy 2: not shown
light: B1 light
notes: as for B1
B13: GpH7-A5/GpH7-B3 variant L328_05P/GpL16-k0 (antibody, human IgG1, kappa)
heavy 1: not shown
heavy 2: not shown
light: B1 light
notes: as for B1
B14: GpH7-A5/GpH7-B3 variant K326_19Q/GpL16-k0 (antibody, human IgG1, kappa)
heavy 1: not shown
heavy 2: not shown
light: B1 light
notes: as for B1
B15: GpH7-A5/GpH7-B3 variant S324_05P/GpL16-k0 (antibody, human IgG1, kappa)
heavy 1: not shown
heavy 2: not shown
light: B1 light
notes: as for B1
B16: GpH7-A5/GpH7-B3 variant N325_19Q/GpL16-k0 (antibody, human IgG1, kappa)
heavy 1: not shown
heavy 2: not shown
light: B1 light
notes: as for B1
B17: GpH7-A5/GpH7-B3 variant L328_02A/GpL16-k0 (antibody, human IgG1, kappa)
heavy 1: not shown
heavy 2: not shown
light: B1 light
notes: as for B1
B18: GpH7-A5/GpH7-B3 variant N325_04F/GpL16-k0 (antibody, human IgG1, kappa)
heavy 1: not shown
heavy 2: not shown
light: B1 light
notes: as for B1
B19: GpH7-A5/GpH7-B3 variant K326_04F/GpL16-k0 (antibody, human IgG1, kappa)
heavy 1: not shown
heavy 2: not shown
light: B1 light
notes: as for B1
B20: GpH7-A5/GpH7-B3 variant P271_09D/GpL16-k0 (antibody, human IgG1, kappa)
heavy 1: not shown
heavy 2: not shown
light: B1 light
notes: as for B1
B21: GpH7-A5/GpH7-B3 variant Y296_11K/GpL16-k0 (antibody, human IgG1, kappa)
heavy 1: not shown
heavy 2: not shown
light: B1 light
notes: as for B1
B22: GpH7-A5/GpH7-B3 variant N325_02A/GpL16-k0 (antibody, human IgG1, kappa)
heavy 1: not shown
heavy 2: not shown
light: B1 light
notes: as for B1
B23: GpH7-A5/GpH7-B3 variant Y296_13S/GpL16-k0 (antibody, human IgG1, kappa)
heavy 1: not shown
heavy 2: not shown
light: B1 light
notes: as for B1
B24: GpH7-A5/GpH7-B3 variant A327_18N/GpL16-k0 (antibody, human IgG1, kappa)
heavy 1: not shown
heavy 2: not shown
light: B1 light
notes: as for B1
B25: GpH7-A5/GpH7-B3 variant K326_15Y/GpL16-k0 (antibody, human IgG1, kappa)
heavy 1: not shown
heavy 2: not shown
light: B1 light
notes: as for B1
B26: GpH7-A5/GpH7-B3 variant A327_20W/GpL16-k0 (antibody, human IgG1, kappa)
heavy 1: not shown
heavy 2: not shown
light: B1 light
notes: as for B1
B27: GpH7-A5/GpH7-B3 variant K326_10E/GpL16-k0 (antibody, human IgG1, kappa)
heavy 1: not shown
heavy 2: not shown
light: B1 light
notes: as for B1
B28: GpH7-A5/GpH7-B3 variant N325_20W/GpL16-k0 (antibody, human IgG1, kappa)
heavy 1: not shown
heavy 2: not shown
light: B1 light
notes: as for B1
B29: GpH7-A5/GpH7-B3 variant N325_11K/GpL16-k0 (antibody, human IgG1, kappa)
heavy 1: not shown
heavy 2: not shown
light: B1 light
notes: as for B1
B30: GpH7-A5/GpH7-B3 variant K326_09D/GpL16-k0 (antibody, human IgG1, kappa)
heavy 1: not shown
heavy 2: not shown
light: B1 light
notes: as for B1
B31: GpH7-A5/GpH7-B3 variant Y296_01G/GpL16-k0 (antibody, human IgG1, kappa)
heavy 1: not shown
heavy 2: not shown
light: B1 light
notes: as for B1
B32: GpH7-A5/GpH7-B3 variant S298_05P/GpL16-k0 (antibody, human IgG1, kappa)
heavy 1: not shown
heavy 2: not shown
light: B1 light
notes: as for B1
B33: GpH7-A5/GpH7-B3 variant K326_20W/GpL16-k0 (antibody, human IgG1, kappa)
heavy 1: not shown
heavy 2: not shown
light: B1 light
notes: as for B1
B34: GpH7-A5/GpH7-B3 variant N325_10E/GpL16-k0 (antibody, human IgG1, kappa)
heavy 1: not shown
heavy 2: not shown
light: B1 light
notes: as for B1
B35: GpH7-A5/GpH7-B3 variant N325_13S/GpL16-k0 (antibody, human IgG1, kappa)
heavy 1: not shown
heavy 2: not shown
light: B1 light
notes: as for B1
B36: GpH7-A5/GpH7-B3 variant N325_05P/GpL16-k0 (antibody, human IgG1, kappa)
heavy 1: not shown
heavy 2: not shown
light: B1 light
notes: as for B1
B37: GpH7-A5/GpH7-B3 variant K326_08L/GpL16-k0 (antibody, human IgG1, kappa)
heavy 1: not shown
heavy 2: not shown
light: B1 light
notes: as for B1
B38: GpH7-A5/GpH7-B3 variant N325_14T/GpL16-k0 (antibody, human IgG1, kappa)
heavy 1: not shown
heavy 2: not shown
light: B1 light
notes: as for B1
B39: GpH7-A5/GpH7-B3 variant L328_04F/GpL16-k0 (antibody, human IgG1, kappa)
heavy 1: not shown
heavy 2: not shown
light: B1 light
notes: as for B1
B40: GpH7-A5/GpH7-B3 variant N325_09D/GpL16-k0 (antibody, human IgG1, kappa)
heavy 1: not shown
heavy 2: not shown
light: B1 light
notes: as for B1
B41: GpH7-A5/GpH7-B3 variant N325_15Y/GpL16-k0 (antibody, human IgG1, kappa)
heavy 1: not shown
heavy 2: not shown
light: B1 light
notes: as for B1

Target: T2, FcγRIIIa extracellular domain with C-terminal His tag (human, UniProt P08637 17-208)
T2 construct: extracellular domain; also called FcgRIIIa; 3a; not shown: His tag at the C terminus
Assay: SPR (Biacore); He/Con_3a divided by He/Con_2b (FcγRIIb)

T2 sequence (P08637 17-208): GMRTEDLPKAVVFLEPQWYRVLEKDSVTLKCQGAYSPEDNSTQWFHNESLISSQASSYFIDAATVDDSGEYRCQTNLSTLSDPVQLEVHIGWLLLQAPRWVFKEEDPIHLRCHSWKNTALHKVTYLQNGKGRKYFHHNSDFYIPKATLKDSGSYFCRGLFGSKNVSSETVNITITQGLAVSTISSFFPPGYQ

| He_3a/2b (IIIa/IIb) | Binder |
| --- | --- |
| 0.69 ratio | B1 |
| 0.7 ratio | B2 |
| 0.63 ratio | B3 |
| 0.59 ratio | B4 |
| 0.17 ratio | B5 |
| 0.7 ratio | B6 |
| 0.27 ratio | B7 |
| 0.56 ratio | B8 |
| 0.14 ratio | B9 |
| 0.7 ratio | B10 |
| 0.17 ratio | B11 |
| 0.68 ratio | B12 |
| 0.62 ratio | B13 |
| 0.76 ratio | B14 |
| 0.69 ratio | B15 |
| 0.46 ratio | B16 |
| 0.55 ratio | B17 |
| 0.14 ratio | B18 |
| 0.66 ratio | B19 |
| 0.77 ratio | B20 |
| 0.78 ratio | B21 |

| He_3a/2b (IIIa/IIb) | Binder |
| --- | --- |
| 0.47 ratio | B22 |
| 0.72 ratio | B23 |
| 0.54 ratio | B24 |
| 0.7 ratio | B25 |
| 0.65 ratio | B26 |
| 0.62 ratio | B27 |
| 0.19 ratio | B28 |
| 0.5 ratio | B29 |
| 0.69 ratio | B30 |
| 0.69 ratio | B31 |
| 0.69 ratio | B32 |
| 0.57 ratio | B33 |
| 0.4 ratio | B34 |
| 0.37 ratio | B35 |
| 0.39 ratio | B36 |
| 0.65 ratio | B37 |
| 0.43 ratio | B38 |
| 0.36 ratio | B39 |
| 0.39 ratio | B40 |
| 0.3 ratio | B41 |

Target: T1, FcγRIIb extracellular domain with …
Assay: SPR (Biacore), FcγR as analyte over captured antibody; GpH7-A5/GpH7-B3/GpL16-k0 = 100

| He/Con_2b | Binder |
| --- | --- |
| 63.5 % of control | B1 |
| 199 % of control | B2 |
| 126 % of control | B3 |
| 95.4 % of control | B4 |
| 171 % of control | B5 |
| 165 % of control | B6 |
| 111 % of control | B7 |
| 80.2 % of control | B8 |
| 217 % of control | B9 |
| 175 % of control | B10 |
| 197 % of control | B11 |
| 108 % of control | B12 |
| 65.1 % of control | B13 |
| 139 % of control | B14 |
| 94.7 % of control | B15 |
| 69.1 % of control | B16 |
| 144 % of control | B17 |
| 143 % of control | B18 |
| 155 % of control | B19 |
| 120 % of control | B20 |
| 72.8 % of control | B21 |

| He/Con_2b | Binder |
| --- | --- |
| 64.4 % of control | B22 |
| 86.3 % of control | B23 |
| 113 % of control | B24 |
| 159 % of control | B25 |
| 78.8 % of control | B26 |
| 200 % of control | B27 |
| 169 % of control | B28 |
| 10.4 % of control | B29 |
| 193 % of control | B30 |
| 79.3 % of control | B31 |
| 11.9 % of control | B32 |
| 148 % of control | B33 |
| 95.9 % of control | B34 |
| 177 % of control | B35 |
| 26 % of control | B36 |
| 177 % of control | B37 |
| 91.6 % of control | B38 |
| 219 % of control | B39 |
| 124 % of control | B40 |
| 99.5 % of control | B41 |

Target: T2, FcγRIIIa extracellular domain with …
Assay: as above

| He/Con_3a | Binder |
| --- | --- |
| 43.7 % of control | B1 |
| 139 % of control | B2 |
| 78.7 % of control | B3 |
| 56.4 % of control | B4 |
| 28.7 % of control | B5 |
| 115 % of control | B6 |
| 30.3 % of control | B7 |
| 44.9 % of control | B8 |
| 31.4 % of control | B9 |
| 122 % of control | B10 |
| 33.3 % of control | B11 |
| 73.5 % of control | B12 |
| 40.5 % of control | B13 |
| 106 % of control | B14 |
| 65.5 % of control | B15 |
| 31.6 % of control | B16 |
| 79.1 % of control | B17 |
| 20.7 % of control | B18 |
| 103 % of control | B19 |
| 93.1 % of control | B20 |
| 56.7 % of control | B21 |

| He/Con_3a | Binder |
| --- | --- |
| 30.5 % of control | B22 |
| 61.8 % of control | B23 |
| 61.1 % of control | B24 |
| 112 % of control | B25 |
| 51.2 % of control | B26 |
| 124 % of control | B27 |
| 32.8 % of control | B28 |
| 5.2 % of control | B29 |
| 134 % of control | B30 |
| 54.5 % of control | B31 |
| 8.2 % of control | B32 |
| 84.8 % of control | B33 |
| 38.2 % of control | B34 |
| 65.1 % of control | B35 |
| 10.2 % of control | B36 |
| 114 % of control | B37 |
| 39.4 % of control | B38 |
| 79.3 % of control | B39 |
| 48 % of control | B40 |
| 29.5 % of control | B41 |
